Key:
AncSZ = test: phosphorylation enrichment, bacterial display (enrichment ratio); higher = better substrate or ligand; peptides without Tyr show the background
EPHB1 = EPHB1 (UniProt P54762); test: as above
EPHB2 = EPHB2 (UniProt P29323); test: as above
FGFR1 = FGFR1 (UniProt P11362); test: as above
FGFR3 = FGFR3 (UniProt P22607); test: as above
Fer (mouse) = test: as above
Fes = Fes (UniProt P07332); test: as above
Fyn = Fyn (UniProt P06241); test: as above
Hck = Hck (UniProt P08631); test: as above
Sequence of Hck (P08631 whole entry, looked up): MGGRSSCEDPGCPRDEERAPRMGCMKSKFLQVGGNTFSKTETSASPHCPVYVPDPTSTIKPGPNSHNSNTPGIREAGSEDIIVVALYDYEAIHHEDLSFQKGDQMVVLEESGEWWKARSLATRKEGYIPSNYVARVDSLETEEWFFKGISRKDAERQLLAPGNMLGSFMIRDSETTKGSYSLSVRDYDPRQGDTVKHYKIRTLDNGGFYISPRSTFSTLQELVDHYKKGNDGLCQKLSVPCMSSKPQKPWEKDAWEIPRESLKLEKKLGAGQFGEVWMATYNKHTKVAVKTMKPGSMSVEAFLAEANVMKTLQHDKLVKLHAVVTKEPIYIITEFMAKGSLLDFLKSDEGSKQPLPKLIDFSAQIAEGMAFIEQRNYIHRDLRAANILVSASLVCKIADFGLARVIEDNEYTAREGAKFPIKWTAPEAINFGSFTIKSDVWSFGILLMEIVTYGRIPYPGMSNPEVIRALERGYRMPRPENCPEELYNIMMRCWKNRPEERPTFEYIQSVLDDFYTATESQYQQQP

Jak2 = Jak2 (UniProt O60674); test: as above
Sequence of Jak2 (O60674 whole entry, looked up): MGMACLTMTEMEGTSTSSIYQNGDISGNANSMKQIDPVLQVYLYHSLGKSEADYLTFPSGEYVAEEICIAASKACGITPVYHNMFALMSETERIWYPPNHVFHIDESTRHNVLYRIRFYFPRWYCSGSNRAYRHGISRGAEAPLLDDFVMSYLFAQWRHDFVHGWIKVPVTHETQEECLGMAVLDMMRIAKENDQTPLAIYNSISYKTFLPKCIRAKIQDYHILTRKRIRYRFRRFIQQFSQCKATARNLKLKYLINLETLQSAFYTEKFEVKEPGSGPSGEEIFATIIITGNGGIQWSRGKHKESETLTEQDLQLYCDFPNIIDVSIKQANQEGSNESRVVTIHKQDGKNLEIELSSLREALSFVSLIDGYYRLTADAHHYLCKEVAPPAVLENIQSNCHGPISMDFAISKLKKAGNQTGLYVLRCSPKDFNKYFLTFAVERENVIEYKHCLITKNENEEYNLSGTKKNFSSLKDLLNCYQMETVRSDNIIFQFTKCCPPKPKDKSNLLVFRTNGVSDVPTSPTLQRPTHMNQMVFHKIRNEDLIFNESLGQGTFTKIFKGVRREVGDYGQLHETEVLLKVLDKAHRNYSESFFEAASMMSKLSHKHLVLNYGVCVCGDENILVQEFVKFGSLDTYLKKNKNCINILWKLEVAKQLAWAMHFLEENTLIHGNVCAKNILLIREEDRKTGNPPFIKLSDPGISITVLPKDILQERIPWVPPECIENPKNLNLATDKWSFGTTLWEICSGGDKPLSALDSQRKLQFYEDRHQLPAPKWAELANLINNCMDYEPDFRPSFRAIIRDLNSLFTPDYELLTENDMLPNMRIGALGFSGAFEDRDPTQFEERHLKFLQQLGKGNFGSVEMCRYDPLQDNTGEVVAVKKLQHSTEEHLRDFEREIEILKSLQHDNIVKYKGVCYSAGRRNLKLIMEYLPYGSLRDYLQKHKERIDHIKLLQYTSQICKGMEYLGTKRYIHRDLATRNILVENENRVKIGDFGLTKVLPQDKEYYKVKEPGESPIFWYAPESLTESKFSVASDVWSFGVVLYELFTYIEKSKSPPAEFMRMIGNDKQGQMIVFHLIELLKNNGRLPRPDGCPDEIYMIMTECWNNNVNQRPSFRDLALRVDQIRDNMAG

MERTK = MERTK (UniProt Q12866); test: as above
c-Abl (mouse) = test: as above
c-Src = test: as above
Grb2 SH2 = Grb2 SH2 (UniProt P62993); test: SH2 binding enrichment of the phosphorylated peptide, bacterial display (enrichment ratio); higher = better substrate or ligand; peptides without Tyr show the background
Sequence of Grb2 SH2 (P62993 whole entry, looked up): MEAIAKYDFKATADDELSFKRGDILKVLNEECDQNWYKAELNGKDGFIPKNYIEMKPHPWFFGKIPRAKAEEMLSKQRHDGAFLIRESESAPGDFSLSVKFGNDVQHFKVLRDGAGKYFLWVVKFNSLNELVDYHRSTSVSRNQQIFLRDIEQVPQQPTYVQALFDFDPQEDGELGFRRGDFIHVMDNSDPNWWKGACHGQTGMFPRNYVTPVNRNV

SHP2-C SH2 = test: as above
c-Src SH2 = test: as above
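Wherever SH2 binding enrichment of the phosphorylated peptide, bacterial display is given: peptide library displayed on the E. coli surface as eCPX fusions, selected cells deep-sequenced, score is each peptide's frequency after selection divided by its frequency in the input.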
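Wherever phosphorylation enrichment, bacterial display is given: 11-residue human phosphosite peptides and single-mutation variants displayed on the E. coli surface, counted by deep sequencing, each peptide's frequency after selection divided by its frequency in the unselected input library; frequency after pTyr selection over input frequency; kinase dosed for 20-30% of maximal phosphorylation in three min.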

Sequence of FGFR3 (P22607 whole entry, looked up): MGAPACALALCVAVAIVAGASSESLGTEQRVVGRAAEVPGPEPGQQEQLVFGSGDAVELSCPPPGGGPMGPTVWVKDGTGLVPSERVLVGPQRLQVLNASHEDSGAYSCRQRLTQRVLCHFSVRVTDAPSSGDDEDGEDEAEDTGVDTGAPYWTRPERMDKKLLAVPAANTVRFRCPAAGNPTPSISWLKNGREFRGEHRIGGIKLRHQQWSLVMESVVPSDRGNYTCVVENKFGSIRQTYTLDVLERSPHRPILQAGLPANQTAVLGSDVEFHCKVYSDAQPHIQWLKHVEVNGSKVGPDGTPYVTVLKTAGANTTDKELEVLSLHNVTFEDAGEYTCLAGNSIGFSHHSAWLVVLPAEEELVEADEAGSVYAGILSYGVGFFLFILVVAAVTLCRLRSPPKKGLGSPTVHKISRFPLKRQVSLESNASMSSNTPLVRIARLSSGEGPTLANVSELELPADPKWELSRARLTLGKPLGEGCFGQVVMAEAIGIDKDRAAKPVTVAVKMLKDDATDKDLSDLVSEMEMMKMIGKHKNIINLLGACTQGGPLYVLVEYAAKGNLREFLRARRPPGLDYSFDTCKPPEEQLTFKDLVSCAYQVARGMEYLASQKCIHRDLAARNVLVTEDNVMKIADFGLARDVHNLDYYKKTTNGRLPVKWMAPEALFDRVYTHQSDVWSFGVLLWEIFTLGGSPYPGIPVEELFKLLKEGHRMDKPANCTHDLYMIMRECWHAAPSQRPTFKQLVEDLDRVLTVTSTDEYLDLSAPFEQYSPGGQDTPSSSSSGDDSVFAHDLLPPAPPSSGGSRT
Sequence of EPHB2 (P29323 whole entry, looked up): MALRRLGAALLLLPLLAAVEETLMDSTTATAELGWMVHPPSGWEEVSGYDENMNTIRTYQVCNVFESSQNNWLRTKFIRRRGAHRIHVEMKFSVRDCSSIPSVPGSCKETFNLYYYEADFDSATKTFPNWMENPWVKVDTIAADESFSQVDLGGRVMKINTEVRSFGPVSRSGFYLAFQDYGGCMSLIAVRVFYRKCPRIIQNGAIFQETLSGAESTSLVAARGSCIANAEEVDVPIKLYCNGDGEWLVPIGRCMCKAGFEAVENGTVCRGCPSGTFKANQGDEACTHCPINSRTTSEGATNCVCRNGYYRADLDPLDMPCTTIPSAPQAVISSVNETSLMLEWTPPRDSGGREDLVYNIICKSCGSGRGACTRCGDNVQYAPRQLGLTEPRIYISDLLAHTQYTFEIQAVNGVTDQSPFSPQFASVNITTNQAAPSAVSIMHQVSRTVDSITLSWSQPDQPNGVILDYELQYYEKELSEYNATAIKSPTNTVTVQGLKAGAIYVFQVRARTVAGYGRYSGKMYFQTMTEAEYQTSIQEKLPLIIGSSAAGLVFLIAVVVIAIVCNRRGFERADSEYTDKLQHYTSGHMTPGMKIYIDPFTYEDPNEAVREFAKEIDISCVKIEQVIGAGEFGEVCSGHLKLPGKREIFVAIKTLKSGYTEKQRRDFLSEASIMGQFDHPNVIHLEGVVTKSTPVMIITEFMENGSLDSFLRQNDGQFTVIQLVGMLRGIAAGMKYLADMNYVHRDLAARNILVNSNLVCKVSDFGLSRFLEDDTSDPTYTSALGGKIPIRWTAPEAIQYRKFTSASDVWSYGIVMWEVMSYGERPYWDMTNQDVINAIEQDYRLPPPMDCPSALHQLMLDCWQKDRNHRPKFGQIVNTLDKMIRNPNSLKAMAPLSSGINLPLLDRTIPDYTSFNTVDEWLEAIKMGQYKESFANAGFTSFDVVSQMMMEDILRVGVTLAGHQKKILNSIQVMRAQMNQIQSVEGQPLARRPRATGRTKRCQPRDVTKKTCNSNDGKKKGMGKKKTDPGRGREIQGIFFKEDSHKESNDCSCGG
Sequence of EPHB1 (P54762 whole entry, looked up): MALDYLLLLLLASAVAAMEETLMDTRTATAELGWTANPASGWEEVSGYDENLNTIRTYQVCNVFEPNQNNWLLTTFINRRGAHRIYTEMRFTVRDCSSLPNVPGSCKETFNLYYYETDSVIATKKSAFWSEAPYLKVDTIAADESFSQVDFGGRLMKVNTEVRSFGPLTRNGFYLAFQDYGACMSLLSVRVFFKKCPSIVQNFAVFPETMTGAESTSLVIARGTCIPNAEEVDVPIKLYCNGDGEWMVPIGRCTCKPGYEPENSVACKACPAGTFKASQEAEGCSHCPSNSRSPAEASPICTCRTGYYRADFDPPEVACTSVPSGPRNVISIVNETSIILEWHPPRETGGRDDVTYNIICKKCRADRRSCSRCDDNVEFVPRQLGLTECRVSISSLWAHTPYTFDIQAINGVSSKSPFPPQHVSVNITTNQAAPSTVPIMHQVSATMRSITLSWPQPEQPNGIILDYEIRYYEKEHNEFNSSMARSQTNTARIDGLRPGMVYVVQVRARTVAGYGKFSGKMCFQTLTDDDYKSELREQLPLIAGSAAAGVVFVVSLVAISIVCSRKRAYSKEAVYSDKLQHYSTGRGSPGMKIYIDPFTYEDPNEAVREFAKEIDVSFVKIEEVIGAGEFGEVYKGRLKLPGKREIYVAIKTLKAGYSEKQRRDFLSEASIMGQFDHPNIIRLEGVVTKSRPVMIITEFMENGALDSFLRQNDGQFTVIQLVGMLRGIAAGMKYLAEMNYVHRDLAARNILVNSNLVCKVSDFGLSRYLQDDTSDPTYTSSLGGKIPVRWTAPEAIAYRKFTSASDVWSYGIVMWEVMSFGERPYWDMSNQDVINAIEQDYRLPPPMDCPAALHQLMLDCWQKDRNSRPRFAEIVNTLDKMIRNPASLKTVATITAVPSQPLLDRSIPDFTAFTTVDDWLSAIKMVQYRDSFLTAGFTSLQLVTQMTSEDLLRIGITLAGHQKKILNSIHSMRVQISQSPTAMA

Sequence | phosphorylation enrichment (AncSZ) | phosphorylation enrichment (EPHB1) | phosphorylation enrichment (EPHB2) | phosphorylation enrichment (FGFR1) | phosphorylation enrichment (FGFR3) | phosphorylation enrichment (Fer (mouse)) | phosphorylation enrichment (Fes) | phosphorylation enrichment (Fyn) | phosphorylation enrichment (Hck) | phosphorylation enrichment (Jak2) | phosphorylation enrichment (MERTK) | phosphorylation enrichment (c-Abl (mouse)) | phosphorylation enrichment (c-Src) | SH2 binding enrichment (Grb2 SH2) | SH2 binding enrichment (SHP2-C SH2) | SH2 binding enrichment (c-Src SH2)
KICDWYQRQRP [KRT14_Y151_R148C] | 1 | 0.398 | 0.602 | 0.466 | 0.598 | 0.513 | 0.9 | 0.447 | 0.407 | 0.651 | 0.511 | 0.555 | 0.48 | 0.854 | 0.75 | 0.616
KILGRYYETGS [PAX2_Y72] | 0.641 | 0.5 | 0.586 | 0.507 | 0.523 | 0.418 | 0.758 | 0.437 | 0.486 | 0.952 | 0.548 | 0.636 | 0.504 | 0.951 | 0.6 | 1.21
KILTHYKRPHT [KMT2D_Y5349] | 0.495 | 0.359 | 0.42 | 0.456 | 0.515 | 0.445 | 0.621 | 0.393 | 0.349 | 0.439 | 0.365 | 0.579 | 0.379 | 1.76 | 1.27 | 1.56
KIPGRYFETGS [PAX2_Y72_L69P_YF] | 0.604 | 0.382 | 0.546 | 0.471 | 0.531 | 0.427 | 1.31 | 0.466 | 0.396 | 0.783 | 0.464 | 0.633 | 0.521 | 1.37 | 0.726 | 0.606
KIVATYRLCSE [DNAH3_Y1586] | 1.06 | 0.631 | 0.626 | 0.571 | 0.664 | 0.487 | 1.28 | 0.463 | 0.725 | 1.02 | 0.565 | 0.714 | 0.535 | 0.685 | 0.778 | 0.512
KKLAEYGPQGR [CLCA1_Y147] | 0.428 | 0.376 | 0.366 | 0.364 | 0.361 | 0.316 | 0.519 | 0.408 | 0.36 | 0.441 | 0.379 | 0.473 | 0.358 | 0.901 | 0.631 | 0.546
KKLEVYQSIAD [MYBPC3_Y548] | 0.878 | 0.557 | 0.529 | 0.499 | 0.75 | 0.502 | 0.882 | 0.725 | 1.08 | 0.857 | 0.488 | 0.55 | 0.798 | 0.792 | 1.18 | 1.47
KKMKCYHVGKV [HARS2_Y151_R150C] | 0.579 | 0.444 | 0.431 | 0.395 | 0.552 | 0.356 | 0.723 | 0.317 | 0.383 | 0.588 | 0.423 | 0.627 | 0.408 | 1.35 | 0.954 | 1.12
